Measured values as given in patent US7291768.

Experiments:
[1] = biological target: GAD-OsMYBS2 (Oryza sativa) (UniProt B8BI93); assay: one_hybrid; conditions: LacZ increase vs no OsMYBS
[2] = biological target: T1, GAD-OsMYBS1 (Oryza sativa) (UniProt B8A9B2); assay: one_hybrid; conditions: LacZ increase vs no OsMYBS
T1 sequence: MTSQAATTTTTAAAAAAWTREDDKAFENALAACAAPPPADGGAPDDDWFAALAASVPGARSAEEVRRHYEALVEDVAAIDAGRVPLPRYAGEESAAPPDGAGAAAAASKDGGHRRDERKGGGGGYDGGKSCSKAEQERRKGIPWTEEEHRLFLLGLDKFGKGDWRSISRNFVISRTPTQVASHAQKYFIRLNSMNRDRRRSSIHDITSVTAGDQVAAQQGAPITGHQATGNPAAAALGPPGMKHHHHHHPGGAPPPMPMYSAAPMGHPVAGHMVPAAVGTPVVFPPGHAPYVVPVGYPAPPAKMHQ

Chain of GAD-OsMYBS2 (Oryza sativa) (B8BI93 other isoform, or with tags, fused parts or gaps): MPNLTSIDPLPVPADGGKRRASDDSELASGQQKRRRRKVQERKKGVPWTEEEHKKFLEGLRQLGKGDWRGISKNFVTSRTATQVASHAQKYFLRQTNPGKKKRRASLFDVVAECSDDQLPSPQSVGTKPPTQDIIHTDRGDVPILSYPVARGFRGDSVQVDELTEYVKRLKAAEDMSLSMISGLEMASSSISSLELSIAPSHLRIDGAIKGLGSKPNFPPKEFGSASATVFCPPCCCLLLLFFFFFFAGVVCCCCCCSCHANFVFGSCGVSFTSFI

8x(TATCCA+F), eight repeats of -133 to -82 of alphaAmy3
activity [1]: 5 fold | activity [2]: 3 fold
